Reference: US20120065106

Legend:
[1] = test system: SMT3-GFP (wild-type SUMO-GFP fusion) [SUMO: Q12306]
[2] = test system: SUMO*-GFP (engineered SUMO 2F4, Smt3 R64T R71E, fused to GFP)
Chain of SUMO*-GFP (engineered SUMO 2F4, Smt3 R64T R71E, fused to GFP) (chain, as listed by the source R64T R71E): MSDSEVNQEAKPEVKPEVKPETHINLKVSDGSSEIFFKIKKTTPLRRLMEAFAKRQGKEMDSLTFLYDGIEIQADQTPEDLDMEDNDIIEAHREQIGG

Chain of SMT3-GFP (wild-type SUMO-GFP fusion) [SUMO: Q12306] (Q12306 whole entry, looked up, the tested form may be a part): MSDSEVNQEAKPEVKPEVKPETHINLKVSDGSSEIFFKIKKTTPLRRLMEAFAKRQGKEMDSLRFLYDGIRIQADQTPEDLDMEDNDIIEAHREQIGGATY

In the case of SUMO protease 2 (SENP2), the “in vitro cleavage (SDS-PAGE and anti-Smt3 Western blot)” value [1] is reported as “wild-type SUMO (Smt3) is cleaved by ULP1 and SENP2 (SUMO protease 1 and 2) in vitro” and the “in vitro cleavage reaction” value [2] is reported as “Neither protease cleaved SUMO*”.
